From patent US20220040319A1 (Regeneron, published 2022) come the findings set out here.

A word on the koff: it is a measure of how fast the partners let go of each other. Higher therefore signals a short-lived complex.

To fix the notation:
B1: H4H14638D (bispecific antibody, human IgG4, V domains shown)
VH 1: QVQLVESGGGVVQPGRSLRLSCAASGFTFSNFGMHWVRQAPGKGLEWVAGIWFDGSNKNYIDSVKGRFTISRDNSKNTLYLQMNSLRAEDTAVYYCAREGYDSGTDYIPYDIFDIWGQGTMVTVSS
VH 2: EVQLVESGGGLVQPGGSLRLSCAASGFIVTTNYMTWLRQAPGKGLEWVSLIYSSGHTYYADSVKGRFTISRHNSKNTLYLQMDSLRAEDTAVYYCASAFAADVFDIWGQGTMVTVSS
VL: not shown
B2: H4H14641D (bispecific antibody, human IgG4, V domains shown)
VH 1: QVQLVESGGGVVQPGRSLRLSCSASGFSFSHFGMHWVRQVPGGGLEWVTSIWFDGSNRYYADSLKGRFTISRDNSKNTLYLEMNSLRAEDTAVYYCVREGILGTTNPYDVFDVWGQGTMVTVSS
VH 2: B1 VH 2
VL: not shown
B3: H4H13312P2 (antibody, human IgG4, V domains shown)
VH: B1 VH 2
VL: not shown
B4: H4H14634D (bispecific antibody, human IgG4, V domains shown)
VH 1: QVQLQESGPGLVKPSETLSLTCTVSGDSISSYYWTWIRQPPGKGLEWIGYIFYRGGTTYNPSLKSRVTISVDTSKNQFSLKLRSVTAADTAVYYCARGDDLLVVTSVYWYIDLWGRGTLVTVSS
VH 2: B1 VH 2
VL: not shown
B5: H4H14640D (bispecific antibody, human IgG4, V domains shown)
VH 1: QVQLVQSGTEVKEPGASVKVSCKASGYSFTTYGISWLRQAPGQGLEWMGWISTYNGDTISAQMLQDRVTLTADTSTRTAYMELRSLRSDDTAVYYCARGHEYDSLVYSYWGQGTLVTVSS
VH 2: B1 VH 2
VL: not shown
B6: H4H14636D (bispecific antibody, human IgG4, V domains shown)
VH 1: EVQLVESGGGLVQPGGSLRLSCAASGFIFSNYEMNWVRQAPGKGLEWISYITSSGNMKYYADSVKGRFTISRDNDKNSLYLQMSSLRVEDTAVYYCVRGGRFLEWLTYYVMVVWGQGTTVTVSS
VH 2: B1 VH 2
VL: not shown
B7: H4H14637D (bispecific antibody, human IgG4, V domains shown)
VH 1: QVQLVESGGGVVQPGTSLRLSCVASGFTFRNFGMHWVRQAPGKGLEWVANIWFDGSNENYVESIQGRFTISRDNSKNTLNLQMNSLRAEDSAVYYCVREGILGTTNPYDAFDVWGQGTMVTVSS
VH 2: B1 VH 2
VL: not shown
B8: H4H16445D (bispecific antibody, human IgG4, V domains shown)
VH 1: QVQLVESGGGVVQPGGSLRLSCAASGFTFSGYGMHWVRQAPGKGLEWMAVIWYDGSNDYYPDSVKGRFTISRDNSKNTLYLQMNSLRVEDTAVYYCARDAWDLLRSFDYWGQGTLVTVSS
VH 2: B1 VH 2
VL: not shown
notes: MET x MET bispecific, expressed as human IgG4; also called bispecific antibody No. 26
B9: H4H14640D (bispecific antibody, human IgG4, V domains shown)
VH 1: B5 VH 1
VH 2: B1 VH 2
VL: not shown
notes: MET x MET bispecific, expressed as human IgG4; also called bispecific antibody No. 138
B10: H4H14637D (bispecific antibody, human IgG4, V domains shown)
VH 1: B7 VH 1
VH 2: B1 VH 2
VL: not shown
notes: MET x MET bispecific, expressed as human IgG4; also called bispecific antibody No. 90
B11: H4H16447D (bispecific antibody, human IgG4, V domains shown)
VH 1: QVQLVESGGGVVQPGRSLRLSCAASGFTFSSYAMHWVRQAPGRGLEWVAVIWHDGDVEYYVDSVKDRFTISRDNSKSTLYLQMNSLRAEDTALYYCAREAWDLLRPFDYWGQGTLVTVSS
VH 2: B1 VH 2
VL: not shown
notes: MET x MET bispecific, expressed as human IgG4; also called bispecific antibody No. 154
B12: H4H14636D (bispecific antibody, human IgG4, V domains shown)
VH 1: B6 VH 1
VH 2: B1 VH 2
VL: not shown
notes: MET x MET bispecific, expressed as human IgG4; also called bispecific antibody No. 74
B13: H4H14635D (bispecific antibody, human IgG4, V domains shown)
VH 1: QVQLVESGGGVVQPGRSLRVSCVVSGFTFSSFGMHWVRQAPDKGLEWVAVIWYDGSNDYYSDSVKGRFTISRDNSKNTLFLQMNRLRAEDTAVYYCARANNWNRFDAFDLWGQGTMVTVSS
VH 2: B1 VH 2
VL: not shown
notes: MET x MET bispecific, expressed as human IgG4; also called bispecific antibody No. 42
B14: H4H16446D (bispecific antibody, human IgG4, V domains shown)
VH 1: QVQLVESGGGVVQPGRSLRLSCAVSGFTFSSYGMHWVRQAPGKGLEWVANIWYDGTNDYYPYSVKGRFTISRDNSQNTLYLQMNSLRAEDTAVYYCAREDFINYRSFDYWGQGTLVTVSS
VH 2: B1 VH 2
VL: not shown
notes: MET x MET bispecific, expressed as human IgG4; also called bispecific antibody No. 58
B15: H4H14634D (bispecific antibody, human IgG4, V domains shown)
VH 1: B4 VH 1
VH 2: B1 VH 2
VL: not shown
notes: MET x MET bispecific, expressed as human IgG4; also called bispecific antibody No. 10
B16: H4H14638D (bispecific antibody, human IgG4, V domains shown)
VH 1: B1 VH 1
VH 2: B1 VH 2
VL: not shown
notes: MET x MET bispecific, expressed as human IgG4
B17: H4H16448D (bispecific antibody, human IgG4, V domains shown)
VH 1: QVQLVESGGGVVQPGRSLRLSCVASGFSFSNFGMHWVRQAPGKGLEWVAIIWYDGSNKYYSDSVKGRFTISRDNSKNTLYLQMNSLRVDDTAVYYCARFDRWKFDAFDIWGQGTMVTVSS
VH 2: B1 VH 2
VL: not shown
notes: MET x MET bispecific, expressed as human IgG4; also called bispecific antibody No. 219
B18: H4H14641D (bispecific antibody, human IgG4, V domains shown)
VH 1: B2 VH 1
VH 2: B1 VH 2
VL: not shown
notes: as for B16
B19: H4H16449D (bispecific antibody, human IgG4, V domains shown)
VH 1: QVQLVESGGGVVQPGRSLRLSCAASGFTFSSFAMHWVRQAPGKGLEWVAVIWYDGSNDYYAASVKGRFTISRDNSKNTLYLEMNRLRAEDTAVYHCARDNWNYWGGMDVWGQGTTVTVSS
VH 2: B1 VH 2
VL: not shown
notes: as for B16
For % Inhibition, HEK293/SRE-Luc Blocking Activity (HGF, 1 h mAb pre-bind) in this document: test concentration or dose not given here.

T2 sequence (P08581 other isoform, or with tags, fused parts or gaps limits assumed, chain 1 of 2): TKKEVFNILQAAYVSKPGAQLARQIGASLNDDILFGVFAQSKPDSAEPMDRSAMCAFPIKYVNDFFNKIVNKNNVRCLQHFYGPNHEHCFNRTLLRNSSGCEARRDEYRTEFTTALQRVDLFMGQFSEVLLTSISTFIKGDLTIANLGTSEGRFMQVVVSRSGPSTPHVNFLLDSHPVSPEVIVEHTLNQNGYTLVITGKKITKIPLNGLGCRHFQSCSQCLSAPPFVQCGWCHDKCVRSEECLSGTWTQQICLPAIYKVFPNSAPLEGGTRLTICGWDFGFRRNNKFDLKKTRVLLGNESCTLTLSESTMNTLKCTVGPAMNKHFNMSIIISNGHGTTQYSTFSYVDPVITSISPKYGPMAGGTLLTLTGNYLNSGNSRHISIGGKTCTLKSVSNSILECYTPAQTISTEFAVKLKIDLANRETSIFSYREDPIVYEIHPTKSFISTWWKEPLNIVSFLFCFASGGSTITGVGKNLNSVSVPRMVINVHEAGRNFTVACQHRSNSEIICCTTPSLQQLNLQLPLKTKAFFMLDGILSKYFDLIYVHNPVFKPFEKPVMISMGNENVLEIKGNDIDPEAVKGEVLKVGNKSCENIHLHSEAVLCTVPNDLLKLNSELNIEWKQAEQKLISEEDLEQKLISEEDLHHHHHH
T2 sequence (P08581 27-307 limits assumed, chain 2 of 2): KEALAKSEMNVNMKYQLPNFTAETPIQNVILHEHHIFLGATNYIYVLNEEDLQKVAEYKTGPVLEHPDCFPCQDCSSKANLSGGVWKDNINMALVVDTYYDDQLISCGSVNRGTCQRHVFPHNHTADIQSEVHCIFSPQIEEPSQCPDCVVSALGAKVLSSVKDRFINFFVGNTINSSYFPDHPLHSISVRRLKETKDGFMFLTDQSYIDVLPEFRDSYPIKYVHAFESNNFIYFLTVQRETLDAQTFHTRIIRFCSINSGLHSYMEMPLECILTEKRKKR

The target of one experiment is T1, human MET on cells (human, UniProt P08581 25-1390). The experiment can be described thus: cell-based or functional assay.
T1 sequence (P08581 25-1390 limits assumed, form in doubt): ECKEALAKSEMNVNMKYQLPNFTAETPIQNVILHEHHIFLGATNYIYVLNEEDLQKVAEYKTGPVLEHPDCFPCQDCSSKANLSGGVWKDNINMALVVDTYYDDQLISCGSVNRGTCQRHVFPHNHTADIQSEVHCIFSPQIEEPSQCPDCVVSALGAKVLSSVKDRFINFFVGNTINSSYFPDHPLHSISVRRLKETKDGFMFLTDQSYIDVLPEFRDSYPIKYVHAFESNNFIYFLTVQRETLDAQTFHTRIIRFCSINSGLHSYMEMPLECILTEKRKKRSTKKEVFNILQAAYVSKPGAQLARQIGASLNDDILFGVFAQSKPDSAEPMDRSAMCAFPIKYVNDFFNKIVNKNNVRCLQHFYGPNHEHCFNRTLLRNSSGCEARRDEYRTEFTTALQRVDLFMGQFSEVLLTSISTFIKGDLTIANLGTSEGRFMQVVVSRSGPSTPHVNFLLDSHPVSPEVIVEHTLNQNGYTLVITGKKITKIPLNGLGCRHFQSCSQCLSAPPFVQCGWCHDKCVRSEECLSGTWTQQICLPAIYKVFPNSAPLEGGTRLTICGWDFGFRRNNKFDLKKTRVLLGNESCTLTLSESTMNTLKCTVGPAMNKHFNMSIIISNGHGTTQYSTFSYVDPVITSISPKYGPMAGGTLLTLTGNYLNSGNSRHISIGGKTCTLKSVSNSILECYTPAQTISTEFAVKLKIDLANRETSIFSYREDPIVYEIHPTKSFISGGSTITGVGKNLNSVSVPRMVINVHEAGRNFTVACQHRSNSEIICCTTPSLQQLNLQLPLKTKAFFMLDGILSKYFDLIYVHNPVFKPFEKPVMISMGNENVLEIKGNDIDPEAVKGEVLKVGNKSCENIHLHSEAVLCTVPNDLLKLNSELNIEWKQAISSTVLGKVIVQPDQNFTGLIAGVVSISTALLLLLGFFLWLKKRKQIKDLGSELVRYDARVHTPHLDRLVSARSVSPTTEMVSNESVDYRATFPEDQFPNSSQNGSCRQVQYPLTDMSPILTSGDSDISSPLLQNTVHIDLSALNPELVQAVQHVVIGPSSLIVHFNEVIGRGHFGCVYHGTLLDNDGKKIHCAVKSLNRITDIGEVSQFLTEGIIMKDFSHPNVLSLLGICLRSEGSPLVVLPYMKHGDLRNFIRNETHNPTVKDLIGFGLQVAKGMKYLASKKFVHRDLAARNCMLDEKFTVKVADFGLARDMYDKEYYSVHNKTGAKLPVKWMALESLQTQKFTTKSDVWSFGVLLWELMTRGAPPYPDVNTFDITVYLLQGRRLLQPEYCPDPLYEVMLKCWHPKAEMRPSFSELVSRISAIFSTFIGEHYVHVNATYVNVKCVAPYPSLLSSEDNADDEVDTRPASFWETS
B1: the “% Inhibition, HEK293/SRE-Luc Blocking Activity (HGF, 1 h mAb pre-bind)” value turned out to be 79%; the “EC50, Ligand (HGF)-Independent HEK293/SRE-Luc Activation” value came out at 5.9 nM; the “Fold Response, Ligand (HGF)-Independent HEK293/SRE-Luc Activation” value worked out at 2.6 fold; the “IC50, HEK293/SRE-Luc Blocking Activity (HGF, 1 h mAb pre-bind)” value (from here on “IC50, HEK293/SRE-Luc Blocking Activity”) is 1.1 nM.

For the molecule B2, the “% Inhibition, HEK293/SRE-Luc Blocking Activity (HGF, 1 h mAb pre-bind)” value amounted to 75%; the “EC50, Ligand (HGF)-Independent HEK293/SRE-Luc Activation” value is 84 nM; the “Fold Response, Ligand (HGF)-Independent HEK293/SRE-Luc Activation” value was 4.4 fold; the “IC50, HEK293/SRE-Luc Blocking Activity” value came out at 2.7 nM.

Turning to B3, the “% Inhibition, HEK293/SRE-Luc Blocking Activity (HGF, 1 h mAb pre-bind)” value came to 48% and the “EC50, Ligand (HGF)-Independent HEK293/SRE-Luc Activation” value is 0.12 nM.

As to B4, the “% Inhibition, HEK293/SRE-Luc Blocking Activity (HGF, 1 h mAb pre-bind)” value was found to be 85%; the “EC50, Ligand (HGF)-Independent HEK293/SRE-Luc Activation” value was determined as 0.09 nM; the “Fold Response, Ligand (HGF)-Independent HEK293/SRE-Luc Activation” value was 3.4 fold; the “IC50, HEK293/SRE-Luc Blocking Activity” value turned out to be 0.0097 nM.

B5: the “% Inhibition, HEK293/SRE-Luc Blocking Activity (HGF, 1 h mAb pre-bind)” value was found to be 89%; the “EC50, Ligand (HGF)-Independent HEK293/SRE-Luc Activation” value came out at 6.8 nM; the “Fold Response, Ligand (HGF)-Independent HEK293/SRE-Luc Activation” value is 2.5 fold; the “IC50, HEK293/SRE-Luc Blocking Activity” value came out at 0.52 nM.

Turning to B6, the “% Inhibition, HEK293/SRE-Luc Blocking Activity (HGF, 1 h mAb pre-bind)” value was 74%; the “EC50, Ligand (HGF)-Independent HEK293/SRE-Luc Activation” value came to 0.28 nM; the “Fold Response, Ligand (HGF)-Independent HEK293/SRE-Luc Activation” value came to 2.8 fold.

As to B7, the “% Inhibition, HEK293/SRE-Luc Blocking Activity (HGF, 1 h mAb pre-bind)” value turned out to be 73%; the “EC50, Ligand (HGF)-Independent HEK293/SRE-Luc Activation” value was 4.1 nM; the “Fold Response, Ligand (HGF)-Independent HEK293/SRE-Luc Activation” value was 2.1 fold.

The target in another experiment is T1, human MET on cells. The experiment can be described thus: cell-based or functional assay. The source holds these as a separate data set.
Consider B3, for which the “% Growth Inhibition, SNU5 cells” value stood at 69% and the “IC50, SNU5 growth” value came out at 0.78 nM.

The next experiment deals with T1, human MET on cells. The experiment in a line: cell-based or functional assay. This is another data set of the same source.
As for B1, the “Relative MET Level, SNU5 cells, 18 hrs” value is 0.35 relative to control (hFc).

Regarding B2, the “Relative MET Level, SNU5 cells, 18 hrs” value was 0.31 relative to control (hFc).

Turning to B4, the “Relative MET Level, SNU5 cells, 18 hrs” value was 0.45 relative to control (hFc).

As to B5, the “Relative MET Level, SNU5 cells, 18 hrs” value was 0.18 relative to control (hFc).

Regarding B6, the “Relative MET Level, SNU5 cells, 18 hrs” value was 0.5 relative to control (hFc).

Turning to B7, the “Relative MET Level, SNU5 cells, 18 hrs” value was 0.49 relative to control (hFc).

A further experiment deals with T1, human MET on cells. The experiment in a line: cell-based or functional assay. The source holds these as a separate data set.
For B3, the “IC50, 6-day in vitro cytotoxicity, A549” value was more than 100 nM; the “IC50, 6-day in vitro cytotoxicity, EBC-1” value is more than 100 nM; the “IC50, 6-day in vitro cytotoxicity, Hs746t” value was more than 100 nM; the “Max % Kill, 6-day in vitro cytotoxicity, A549” value is 7%. Besides, the “Max % Kill, 6-day in vitro cytotoxicity, EBC-1” value was 30% and the “Max % Kill, 6-day in vitro cytotoxicity, Hs746t” value is 0%.

Another experiment has as its target T2, hMet.mmh (human MET extracellular domain with C-terminal myc-myc-hexahistidine tag) (human, UniProt P08581 309-914; P08581 27-307).
T2 construct: soluble monomeric MET; also called monomeric human MET
The experiment can be described thus: SPR 37C, antibody captured. How it is done:
Kinetic association (kₐ) and dissociation (kd) rate constants were determined as described in Example 3.
For the molecule B8, the T½ is 29.4 min and the koff was 0.000393 s⁻¹.

As to B9, the T½ was not below 1160 min and the koff was not above 1e-05 s⁻¹.

In turn, B10 yielded a T½ of 35.4 min and a koff of 0.000326 s⁻¹.

In the case of B11, the T½ was 13.6 min.

Consider B12, for which the T½ is not below 1160 min and the koff was not above 1e-05 s⁻¹.

Molecule B13 yielded a T½ of 141 min and a koff of 8.21e-05 s⁻¹.

B14 returned a T½ of 112 min and a koff of 0.000103 s⁻¹.

With B15, the T½ is not below 1160 min and the koff was not above 1e-05 s⁻¹.

B16 registered a T½ of 70.2 min and a koff of 0.000165 s⁻¹.

Consider B17, for which the T½ worked out at 19.5 min and the koff amounted to 0.000592 s⁻¹.

As for B18, the T½ amounted to 35.3 min and the koff turned out to be 0.000327 s⁻¹.

B19 had a T½ of 39.3 min and a koff of 0.000294 s⁻¹.
